For 131 substances, amyloid nucleation score results are on record in the supplement of paper PMC12042874.

± gives the uncertainty stated by the source.

This data set is described as follows: amyloid nucleation score (Sup35N fusion, yeast selection) (log enrichment); library NNK3; higher = more nucleation; inactive = no reads after selection. The essentials:
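On medium lacking adenine and uracil, psi-negative yeast expressing peptides of 20 random codons fused to Sup35N were grown 7 days at 30°C after a 24-hour induction with 100 μM copper sulfate. Illumina sequencing of input and output plasmid inserts gave the reads, and sequences under 100 input reads were excluded. The nucleation score is the DiMSum log enrichment of output over input reads, centred on the mode score of non-aggregating sequences.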

Take MWEKFQWCNIINGINSVCVV: the amyloid nucleation score came out at 0.962 ± 0.16. Turning to RTDCV, the amyloid nucleation score result is “inactive”. Consider SRQNIFLLRLKTMTGQSVNI, for which the amyloid nucleation score entry was “inactive”.

Regarding MSLNNGGSGSCVCPFR, the amyloid nucleation score entry was “inactive”. As to AMLLGFLGCGCKLHACCDY, the amyloid nucleation score result was “inactive”.

Substance AFLSMSGNLLVVYSGEGGSP displayed an amyloid nucleation score of -0.027 ± 0.35. Regarding VFHHIILRFN, the amyloid nucleation score result is “inactive”.

Regarding IVMVIAAGWFN, the amyloid nucleation score turned out to be 0.633 ± 0.2. For the substance KGRFVLLDTTAQLNI, the amyloid nucleation score result is “inactive”.

LFMLVAE: the amyloid nucleation score result is “inactive”. With EICKSLKLCNIWNCRIMLRS the entry was “inactive”. As for RILLFMHPMSICMSP, the amyloid nucleation score entry was “inactive”.

On to TTSEAIMLGCSISTYNQSGN, for which the amyloid nucleation score result was “inactive”. In the case of WFPMSAKLYAHATHCVPLSL, the amyloid nucleation score entry is “inactive”. For the substance WMDIYW, the amyloid nucleation score is 0.403 ± 0.24.

For TIHHRCCSKWKSAWRAYWSI, the amyloid nucleation score result is “inactive”. For YNRLIMSSELSMIGTTCISY, the amyloid nucleation score result was “inactive”. On to SNLNWPWKYPNMWFLLS, for which the amyloid nucleation score result was “inactive”. For LFCSYNRRGAHLAGCAR, the amyloid nucleation score result is “inactive”. On to SINCTYPVRND, for which the amyloid nucleation score result is “inactive”. Turning to RSTQRTLPQ, the amyloid nucleation score entry is “inactive”. As to SGSLHACLALWTLTTYCVST, the amyloid nucleation score result was “inactive”. With YTIALTRGLKFMVINCRTFY the entry was “inactive”; with SLYGKDYTKTVFSDAVFVCF, “inactive”; with SLNMSN, “inactive”. With RSRAFGDGKNWMHCRRYVM the entry was “inactive”. Turning to MLEYRVTARDGVLWEMGFGY, the amyloid nucleation score entry is “inactive”. In the case of RSLYASLCVRIFDGLYCCMK, the amyloid nucleation score result is “inactive”. With LLSPQFRRIGSFRWKFAPRF the entry was “inactive”; with PVTIFKETCWP, “inactive”.

As for SMGLR, the amyloid nucleation score result is “inactive”. NCVYVLESD showed an amyloid nucleation score of -0.075 ± 0.32. Consider HGTKREKIYLYGYCPDKNHH, for which the amyloid nucleation score entry was “inactive”.

As for CLVKHRPHSEVACGADNVCR, the amyloid nucleation score entry was “inactive”. Turning to CGVCFYHIAWGSVHDTS, the amyloid nucleation score amounted to 0.93 ± 0.16. With TGVSVECLLLWSWSVVWRCM the entry was “inactive”. Consider MAHDEYWTGCVTGYKELEVM, for which the amyloid nucleation score entry is “inactive”.

For PKSFWVLSPIDLVIVVQVRQ, the amyloid nucleation score entry was “inactive”. As for LLLRLLTMMVFNCILVDYGL, the amyloid nucleation score result was “inactive”. Regarding WYSYPNFG, the amyloid nucleation score entry is “inactive”. On to YRLPMILKFLNWGFSYLVPF, for which the amyloid nucleation score result is “inactive”. With ERFYTLVI the entry was “inactive”; with PTNDAYVVVMD, “inactive”. With FGHYRYEFCELSGHGMGVDA the entry was “inactive”; with NTAPNISRSVIVCYYDDGEK, “inactive”; with WRAAIEDASLFIERIHNNSS, “inactive”. For CTCFRGSTFRNAYN, the amyloid nucleation score result was “inactive”. With GWWRMAWLV, the amyloid nucleation score entry is “inactive”. TCFFISSIFSFDKHVIVCCA yielded an amyloid nucleation score of 0.536 ± 0.32.

For the substance SAYTNANGLNVSLFLMHHAC, the amyloid nucleation score entry was “inactive”. Take ISGLSNMAYFLVNAWKLM: the amyloid nucleation score entry is “inactive”. In the case of FVSVDGWSESMWLASVVLSE, the amyloid nucleation score result was “inactive”.

With WYALYSIWVKHTHLCERTVE, the amyloid nucleation score entry was “inactive”.

As for AGGAMGVHRCPLLS, the amyloid nucleation score entry was “inactive”.

In turn, KPTWQKEFVR came in with an amyloid nucleation score of 0.969 ± 0.19.

In the case of ESFPFVSASDCSCSNR, the amyloid nucleation score entry was “inactive”. As to AHFLLCNLA, the amyloid nucleation score entry was “inactive”. With LFRDKDVDVVSSN, the amyloid nucleation score entry is “inactive”. With HGAVRQLNRGRKWSSLETVG the figure was 0.85 ± 0.19; with IDSNGYVLLVRDGREKVVRC, 0.204 ± 0.29. VSVDWGLPRFGYTYKIL: the amyloid nucleation score result is “inactive”. With TRMGFYKAWYTAYVWRHALL the entry was “inactive”. Turning to WSRLDMMLRLLAVLLPVRLD, the amyloid nucleation score result was “inactive”. As for FLMFKIPDTARELHVNSGLG, the amyloid nucleation score entry is “inactive”.

As for FFVTR, the amyloid nucleation score result is “inactive”. Consider TLEFHPRAINYDHRMNMFSR, for which the amyloid nucleation score entry was “inactive”. Consider NPKLG, for which the amyloid nucleation score result was “inactive”. FGRTHAYSLFQKKSGFLLTP: the amyloid nucleation score result is “inactive”.

On to FHGYRLVYPSDYPWCLSSVH, for which the amyloid nucleation score result is “inactive”. On to TCWRGELMELTDMLSVALLR, for which the amyloid nucleation score result is “inactive”. For PKSLLVPIIRPMQVWRKFDL, the amyloid nucleation score entry was “inactive”. With HRRLGRTFFCATLGLHLCDF the entry was “inactive”.

Turning to LKAYKFMSSNQHTRTAFLGD, the amyloid nucleation score entry is “inactive”. In the case of QSLLDLMSFLMCV, the amyloid nucleation score result was “inactive”.

For KIMCGGTVSERETRTLHQSG, the amyloid nucleation score entry was “inactive”. Turning to LVKLKL, the amyloid nucleation score entry is “inactive”.

As to KLCTVINRLYLHRGGNSNSQ, the amyloid nucleation score result is “inactive”. Consider PLLFSRVSLDL, for which the amyloid nucleation score entry is “inactive”. Consider KCAEL, for which the amyloid nucleation score entry was “inactive”.

In turn, RVQMVLLMNTSFLNVLIMCI came in with an amyloid nucleation score of -0.375 ± 1. As to YSSGSFCLFKWSIHR, the amyloid nucleation score amounted to 1.65 ± 0.065. For the substance MVGWVWERMRHAPWE, the amyloid nucleation score result was “inactive”. For WCFHDGLRAYVNFCRVYATN, the amyloid nucleation score result is “inactive”. Regarding FIDQVDIVVCWSTWAI, the amyloid nucleation score result was “inactive”. The substance KAREVGIQWRKWSIIAWNNW came in with an amyloid nucleation score of 1.45 ± 0.095. As for GKGPNCMGASFLNGAHWSGI, the amyloid nucleation score entry was “inactive”.

Consider PKGEGIMISLFLDCTRLVNG, for which the amyloid nucleation score is 2.11 ± 0.077. Take FFRNDCGHVFSYVAGSES: the amyloid nucleation score entry was “inactive”. For the substance YITDYNQVSAHTQNKKTMGY, the amyloid nucleation score result was “inactive”. On to CWFLVTMGYAGCFFSPVTQL, for which the amyloid nucleation score result is “inactive”.

Take SVVYRKDSIKQRKEFSSHAF: the amyloid nucleation score result is “inactive”.

As for YTPRFMISSWVLRDFIHGVS, the amyloid nucleation score result is “inactive”. As for VTVSHCRIRFFRLESDDGLC, the amyloid nucleation score was -0.218 ± 0.88. Consider GYFFGTTKKCETFTCMRWQV, for which the amyloid nucleation score result is “inactive”. For IAAIGLELYWFFIVSIWGY, the amyloid nucleation score result is “inactive”. As to GNMKNHTMQFAEVVDGDFTM, the amyloid nucleation score entry is “inactive”. With VLLKALVIFDY the entry was “inactive”; with RNISRS, “inactive”. With RDEVLNSHFIVGSRMRSNVA the figure was 1.31 ± 0.14; with LMAVHMGMCMHEILHAVSLR, “inactive”; with QLIWYTACKASIDVNRHGSG, “inactive”. With IVVFYAFEVFVGEGGKTRVP the entry was “inactive”.

In turn, YISNMLTLSPAKVSHKSWVI returned an amyloid nucleation score of 0.186 ± 0.29. As to NLFSRLRYSLSAFQIWRLSV, the amyloid nucleation score entry was “inactive”. As for MLLDTLCNHLRVYKYVRGDG, the amyloid nucleation score result is “inactive”. In the case of GLCSMLASFRTQYSS, the amyloid nucleation score entry is “inactive”. Regarding SIIGKNYKFRATSINKGISM, the amyloid nucleation score result was “inactive”. In the case of VYCEPNMP, the amyloid nucleation score was -0.163 ± 1.1. In the case of YVDPRGVTVSWMSIYSRRAL, the amyloid nucleation score result was “inactive”. With ELFILHSGGGWCSGI the figure was 0.926 ± 0.16. Consider SSSTFPSSKIDYGTIR, for which the amyloid nucleation score entry is “inactive”. On to LSFTHSSDTECCGER, for which the amyloid nucleation score result was “inactive”. With VTKVYGDVVLEWRHDVLFGG the figure was 0.503 ± 0.32. For AFQMCATGRRIDTGDVSFVV, the amyloid nucleation score result is “inactive”. Regarding AKMNYKLWRDVA, the amyloid nucleation score entry is “inactive”.

Take CRIPALTTTMLITNG: the amyloid nucleation score result is “inactive”. As for RVGVACKCFIQCLYFVFISI, the amyloid nucleation score result was “inactive”. On to FRADSSVGVIKVCLGRLCRW, for which the amyloid nucleation score entry was “inactive”.

For the substance LDRFENINRL, the amyloid nucleation score result was “inactive”. In turn, IRYALTINYSNTVL returned an amyloid nucleation score of 0.457 ± 0.24. For NDVPLDRQLVDGYIASARFG, the amyloid nucleation score entry was “inactive”. With AWCKGV the entry was “inactive”.

In the case of FWSWNVWLRSGSPAISFHK, the amyloid nucleation score result was “inactive”. FCVEIMSLSVRGCWGYSFGT: the amyloid nucleation score entry was “inactive”. Consider RCNLTCLGMIDVTIS, for which the amyloid nucleation score entry is “inactive”. Take DFGFWLVDVGWGPLLRYVAD: the amyloid nucleation score result was “inactive”. Consider IDLTTDSLDM, for which the amyloid nucleation score result was “inactive”. As to NKVSWIFNDSKGQGSV, the amyloid nucleation score is -0.291 ± 1.3.

For YCETSLLCCCSIPWYLNCIE, the amyloid nucleation score result was “inactive”.

For AYRRKLISGFIWERFLFRCG, the amyloid nucleation score result is “inactive”. As to HSSCGNEVFFDSSVGSNRIL, the amyloid nucleation score result is “inactive”.
